{"source": "patent US6713247B1", "about": "“Human CNS cell lines and methods of use therefor” (Signal Pharmaceuticials, Inc., priority 1996, dated 2004)", "molecules": {"B1": {"name": "EGF: human recombinant epidermal growth factor (protein, UniProt P01133 23-1207, looked up)", "Pro-epidermal growth factor": "PQHWSCPEGTLAGNGNSTCVGPAPFLIFSHGNSIFRIDTEGTNYEQLVVDAGVSVIMDFHYNEKRIYWVDLERQLLQRVFLNGSRQERVCNIEKNVSGMAINWINEEVIWSNQQEGIITVTDMKGNNSHILLSALKYPANVAVDPVERFIFWSSEVAGSLYRADLDGVGVKALLETSEKITAVSLDVLDKRLFWIQYNREGSNSLICSCDYDGGSVHISKHPTQHNLFAMSLFGDRIFYSTWKMKTIWIANKHTGKDMVRINLHSSFVPLGELKVVHPLAQPKAEDDTWEPEQKLCKLRKGNCSSTVCGQDLQSHLCMCAEGYALSRDRKYCEDVNECAFWNHGCTLGCKNTPGSYYCTCPVGFVLLPDGKRCHQLVSCPRNVSECSHDCVLTSEGPLCFCPEGSVLERDGKTCSGCSSPDNGGCSQLCVPLSPVSWECDCFPGYDLQLDEKSCAASGPQPFLLFANSQDIRHMHFDGTDYGTLLSQQMGMVYALDHDPVENKIYFAHTALKWIERANMDGSQRERLIEEGVDVPEGLAVDWIGRRFYWTDRGKSLIGRSDLNGKRSKIITKENISQPRGIAVHPMAKRLFWTDTGINPRIESSSLQGLGRLVIASSDLIWPSGITIDFLTDKLYWCDAKQSVIEMANLDGSKRRRLTQNDVGHPFAVAVFEDYVWFSDWAMPSVMRVNKRTGKDRVRLQGSMLKPSSLVVVHPLAKPGADPCLYQNGGCEHICKKRLGTAWCSCREGFMKASDGKTCLALDGHQLLAGGEVDLKNQVTPLDILSKTRVSEDNITESQHMLVAEIMVSDQDDCAPVGCSMYARCISEGEDATCQCLKGFAGDGKLCSDIDECEMGVPVCPPASSKCINTEGGYVCRCSEGYQGDGIHCLDIDECQLGEHSCGENASCTNTEGGYTCMCAGRLSEPGLICPDSTPPPHLREDDHHYSVRNSDSECPLSHDGYCLHDGVCMYIEALDKYACNCVVGYIGERCQYRDLKWWELRHAGHGQQQKVIVVAVCVVVLVMLLLLSLWGAHYYRTQKLLSKNPKNPYEESSRDVRSRRPADTEDGMSSCPQPWFVVIKEHQDLKNGGQPVAGEDGQAADGSMQPTSWRQEPQLCGMGTEQGCWIPVSSDKGSCPQVMERSFHMPSYGTQTLEGGVEKPHSLLSANPLWQQRALDPPHQMELTQ", "modifications": "Pro-epidermal growth factor"}}, "key": {"clone C10": {"system": "clone C10", "assay": "Effects of EGF and PDGF on proliferation and survival, clone C10", "type": "cell-based, human", "description": "(§1) EGF and PDGF Enhance Proliferation Rate and Cell Survival. To facilitate the expansion of the human CNS clones, we identified factors that increase the proliferation rate and/or cell survival. To examine the effects of EGF and PDGF on the proliferation and survival of the human CNS clones, 40 ng/mL EGF, 20 ng/mL PDGF or both were added to the standard growth medium, which already contained FGF-2 and 50% CM, and total cell number and BrdU uptake and incorporation were assessed as described above. For clone C2, EGF or PDGF addition increased the total cell number (FIG. 11A) by approximately 2-fold. This increase in cell number was due to enhanced cell viability (decreased cell death), since there were only slight increases in proliferation rate (assessed by BrdU uptake and incorporation, FIG. 11B). […] In the case of clone C10, EGF (but not PDGF) addition increased the total cell number (FIG. 12A) by approximately 40%. […] This increase in cell number was due, at least in part, to enhanced proliferation rates; BrdU uptake and incorporation increase about 2-fold with EGF or EGF+PDGF addition (FIG. 12B), and doubling times (based on cell counts as a function of days in vitro, data not shown) decreased from 3 days (no EGF or PDGF addition) to 2 days (EGF+PDGF addition). […]"}, "clone C2": {"system": "clone C2", "assay": "Effects of EGF and PDGF on proliferation and survival, clone C2", "type": "cell-based, human", "conditions": "added to growth medium with FGF-2 and 50% CM, EGF 40 ng/mL, PDGF 20 ng/mL", "description": "as §1"}}, "data": [{"molecule": "B1", "values": [{"measurement": "increase in BrdU uptake and incorporation", "setting": "clone C10", "value": "approximately 2 fold"}, {"measurement": "increase in total cell number", "setting": "clone C10; EGF 40 ng/mL added to growth medium with FGF-2 and 50% CM", "value": "approximately 40%"}, {"measurement": "increase in total cell number", "setting": "clone C2", "value": "approximately 2 fold"}]}]}
